These results are taken from publication doi:10.1101/2021.03.16.435614.

pKd: −log10 of the molar value.

The assay addresses CTD (C-terminal domain) of SOQ1 (SUPPRESSOR OF QUENCHING1), recombinant (Arabidopsis thaliana). Nature of the assay: MST.

One may read the pKd as −log10 of the Kd, conventionally taken in molar units. Regarding “Trx-like domain of SOQ1 (SUPPRESSOR OF QUENCHING1), recombinant (domain or fragment)”, the pKd is 5.06.
